From patent publication US20180280504A1, “GLYCAN-INTERACTING COMPOUNDS AND METHODS OF USE” (SIAMAB THERAPEUTICS, INC., priority 2014, published 2018)
Changes are numbered by the printed parent chain. In names and notes the source's numbering stands.

How the values were obtained:
[1] = test system: MDA-MB-231 parental cells (MDA-STn−); assay: Flow cytometry-based analysis of antibody binding, parental cells; set-up: species or system human
Experimental: Flow cytometry-based analysis is carried out to elucidate the curve-dose response for binding of antibodies to cell surface antigens. For these analyses, three cell lines are employed.
MDA-MB-231 cells are human breast cancer cells. They are grown in Earle's Minimum Essential Medium supplemented with 10% fetal calf serum (FCS), 100 μg/ml penicillin, 100 UI/ml streptomycin and 45 μg/ml gentamycin. MCF-7 cells are also human breast cancer cells and are grown under the same conditions as MDA-MB-231 cells. Stably transfected versions of MDA-MB-231 and MCF-7 cells (clone TAH3.P10 for MDA-MB-231 cells and clone A12.1 for MCF-7 cells) that over express GalNAc α2,6-sialyltransferase (ST6GalNAc 1,) are also cultured under the same conditions with the exception of an added 1 mg/ml of G418 to support cells expressing the transgene. ST6GalNAc 1 is an enzme capable of sialylating GalNAc. […]
For analysis, cells are harvested using StemPro Accutase (Life Technologies, Carlsbad, Calif.) and washed with PBS comprising 5% FBS before pelleting by light centrifugation. Cell numbers and viability are determined by trypan blue dye exclusion analysis and cell concentrations are adjusted to 5×10^6 cells/ml in PBS with 5% FBS. […] Cells are combined with 50 μl solutions of antibody being analyzed or control antibodies and incubated for 1 hour at 4° C. […]

[2] = E3-STn allograft model, complete blood count (CBC); type: in vivo, mouse; set-up: White blood cells Level: unit not given here; conditions: CBC at end of study, 5 mice
Experimental: At the end of the study, a complete blood count (CBC) was obtained for 5 mice treated with antibody as well as 3 mice treated with vehicle control. Blood was collected from all mice via terminal cardiac puncture and processed for plasma. Blood was placed in EDTA microtainer tubes (BD & Co., Franklin Lakes, N.J.) then centrifuged. Plasma layers were then removed and snap frozen in cryo vials (Thermo-Fisher Scientific, Rochester, N.Y.) and stored at −80° C. until analysis. Analysis was carried out to look for levels of a variety of factors.

[3] = Glycan array, 9-O-acetylated AcSTn; type: binding; conditions: glycan microarray, Cy3 anti-mouse IgG
Experimental: Optimized glycan arrays comprise 71 chemically synthesized and well-defined glycans, most of which comprise Neu5Ac and Neu5Gc glycan pairs.
300 ml of epoxy blocking buffer is prepared by combining 15 ml of 2 M Tris buffer (pH 8) with 0.9 ml of 16.6 M ethanolamine and 284.1 ml of distilled water. The solution was brought to a final pH of 9.0 with HCl. The solution is filtered using a 0.2 μM nitrocellulose membrane. The epoxy buffer solution as well as 1 L of distilled water are pre-warmed to 50° C. Glass slides are arranged in a slide holder and quickly submerged in a staining tub with the warmed epoxy blocking buffer. Slides are incubated in the epoxy blocking buffer for 1 hour at 50° C. with periodic shaking to deactivate epoxy binding sites. Next, slides are rinsed and blocked with PBS with 1% OVA at 25° C. for one hour. Serum samples with polyclonal antibodies (1:1000) or purified monoclonal antibodies (1 ug/mL), are diluted in PBS with 1% OVA and added to the glycan array for one hour at 25° C. After extensive washing, binding of antibodies are detected by incubating glycan microarray slides with Cy3-conjugated anti-mouse IgG (Jackson Immunoresearch, West Grove, Pa.) for one hour. Slides are then washed extensively, dried and scanned with a Genepix 4000B scanner (Laser at 100%; gain at 350; 10 μm pixels). […]

[4] = test system: COLO-205 Human Colon Adenocarcinoma Tumor Xenograft; assay: COLO-205 human colon adenocarcinoma xenograft model, tumor volume; type: in vivo, mouse; conditions: 5 mg/kg i.p. once weekly
Description: (§1) To evaluate antibody drug conjugates (ADCs) as single agents in an COLO-205 Colon AdenocarcinomaTumor Xonograft model, 40 athymic nude female mice age range 6-8 weeks were randomly separated into four separate groups, one vehicle control and three ADC treatments, then maintained individually with food/water ad libitum (see the following Table).
(§2) Animals were inoculated in the subcutaneous right flank with 5×10^6 colon adenocarcinoma tumor cells (COLO-205) in matrigel, mean tumor size was 175-225 mm^3 at study initiation. Animals were given either vehicle or one of the antibody drug conjugates (5 mg/kg) by intraperitoneal injection once weekly. Tumor volume and percent body weight change were determined once weekly until study termination. The study was terminated when the tumor in the vehicle control animal reached a mean tumor weight >1500 mm^3. SE refers to “standard error.”

[5] = COLO-205 xenograft model, percent body weight change; type: in vivo, mouse; conditions: 5 mg/kg i.p. once weekly
Description: as §1, §2

[6] = test system: COLO-205 Human Colon Adenocarcinoma Tumor Xenograft; assay: COLO-205 xenograft model, clinical observations; type: in vivo, mouse; conditions: 5 mg/kg i.p. once weekly
Experimental: as §2
Clinical observations of tumor shape, size and disposition were noted throughout the study.

B1: 8C11: anti-STn mouse monoclonal, IgG2b κ, from mouse #4407; VH SEQ ID NO: 8, VL SEQ ID NO: 9 (antibody, V domains shown)
VH: QVQLKESGPGLVAPSQSLSITCTVSGFSLTSYGVSWVRQPPGKGLEWLGVIWGDGSTNYHSALISRLIISKDNSKSQVFLKLNSLQTDDTATYYCTKGFTYWGQGTLVTVSA
VL: QIVLTQSPAIMSASPGEKVTMTCSASSSVSYMHWYQQKSGTSPKRWIFDTSKLASGVPARFSGSGSGTSYSLTISSMEAEDAATYYCQQWSSNLLTFGAGTKLELK
- binding to MDA parental cells lacking STn [1]: No binding

B2: 7G9: anti-STn mouse monoclonal, IgG2b κ, from mouse #4407; VH SEQ ID NO: 12, VL SEQ ID NO: 9 (antibody, V domains shown)
VH: B1 VH with S17N, S35N, D72E, D88N, T100V
VL: B1 VL
- % Lymphocytes Level [2]: 44.4%
- % Monocytes Level [2]: 4.6%
- % Neutrophils (Segmented) Level [2]: 51.0%
- Hematocrit Level [2]: 46.9%
- Hemoglobin Level [2]: 16.0 g/dL
- Lymphocytes Level [2]: 5.6 10^9/L
- Mean Corpuscular Hemoglobin Concentration Level [2]: 34.2 g/dL
- Mean Corpuscular Hemoglobin Level [2]: 16.2 pg
- Mean Corpuscular Volume Level [2]: 47.4 fL
- Mean platelet volume Level [2]: 7.4 fL
- Monocytes Level [2]: 0.7 10^9/L
- Neutrophils Level [2]: 7.6 10^9/L
- Platelet Cell Distribution Width Level [2]: 32.2%
- Platelet count Level [2]: 712.2 10^3
- Red Cell Distribution Width Level [2]: 19.0%
- Red blood cells Level [2]: 9.9 10^6/L
- White blood cells Level [2]: 13.9

B3: 18C7: anti-STn mouse monoclonal, IgG2c κ, from mouse #4436; VH SEQ ID NO: 4, VL SEQ ID NO: 5 (antibody, V domains shown)
VH: QVTLKESGPGILQPSQTLSLTCSFSGFSLSTFGMGVGWIRQPSGKGLEWLAHIWWDDDKYYNPALKSRLTISKDTSKNQVFLKIANVDTADTATYYCARIAYYYGSERDYWGQGTTLTVSS
VL: QIVLTQSPAIMSASPGEKVTMTCSASSSISYMHWYHQKPGTSPKRWIYDTSKLASGVPARFSGSGSGTSYSLTISSMEAEDAATYYCHQRSSYTFGGGTKLEIKR
- mean fluorescence intensity, Neu5,9Ac2-α2,6-GalNAc [3]: about 4,500

B4: S3F: 3F1 variable domains combined with IgG2a constant domains; heavy chain SEQ ID NO: 63, light chain SEQ ID NO: 64 (antibody)
heavy: QVQLQQSDAELVKPGASVKISCKASGYTFTDHAIHWVKQKPEQGLDWIGYISPGNGDIKYNEKFKDKVTLTADKSSSTACMHLNSLTSEDSAVYFCKRSLLALDYWGQGTTLTVSSAKTTAPSVYPLAPVCGDTTGSSVTLGCLVKGYFPEPVTLTWNSGSLSSGVHTFPAVLQSDLYTLSSSVTVTSSTWPSQSITCNVAHPASSTKVDKKIEPRGPTIKPCPPCKCPAPNLLGGPSVFIFPPKIKDVLMISLSPIVTCVVVDVSEDDPDVQISWFVNNVEVHTAQTQTHREDYNSTLRVVSALPIQHQDWMSGKEFKCKVNNKDLPAPIERTISKPKGSVRAPQVYVLPPPEEEMTKKQVTLTCMVTDFMPEDIYVEWTNNGKTELNYKNTEPVLDSDGSYFMYSKLRVEKKNWVERNSYSCSVVHEGLHNHHTTKSFSRTPGK
light: DIVMTQSHKFMSTSVGDRVSITCKASQDVGTNIAWYQQKPGRSPKVLIYSASTRHTGVPDRFTGSGSGTDFTLTISNVQSEDLTDYFCQQYSSFPLTFGVGTKLELKRADAAPTVSIFPPSSEQLTSGGASVVCFLNNFYPKDINVKWKIDGSERQNGVLNSWTDQDSKDSTYSMSSTLTLTKDEYERHNSYTCEATHKTSTSPIVKSFNRNEC
- tumor volume course after day 8 ([4]; athymic nude mice): continued to show rapid increase in volume
- Tumor Volume ([4]; study day 1): 182.8 mm^3
- Tumor Volume ([4]; study day 5): 315.2 mm^3
- Tumor Volume ([4]; study day 8): 448.8 mm^3
- Tumor Volume ([4]; study day 10): 543.1 mm^3
- Tumor Volume ([4]; study day 15): 655.3 mm^3
- Tumor Volume ([4]; study day 19): 850.6 mm^3
- Tumor Volume ([4]; study day 22): 938.2 mm^3
- Tumor Volume ([4]; study day 25): 1001.4 mm^3
- body weight course after initial drop [5]: remained low
- Percent Body Weight Change ([5]; study day 1): 0%
- Percent Body Weight Change ([5]; study day 5): 1.18%
- Percent Body Weight Change ([5]; study day 8): −5.01%
- Percent Body Weight Change ([5]; study day 10): −2.53%
- Percent Body Weight Change ([5]; study day 15): −5.22%
- Percent Body Weight Change ([5]; study day 19): −1.33%
- Percent Body Weight Change ([5]; study day 22): −0.91%
- clinical observations of tumors and signs of illness [6]: necrosing tumors ranging in severity from slight to severe
